One molecule from article PMC1636418 can be followed below.

Holding throughout (assay): EMSA
Background: In EMSA bound probe runs differently from free probe, usually more slowly.

One series deals with T1, ZαβZBP1 (Homo sapiens, UniProt Q9H171 4-167).
T1 sequence: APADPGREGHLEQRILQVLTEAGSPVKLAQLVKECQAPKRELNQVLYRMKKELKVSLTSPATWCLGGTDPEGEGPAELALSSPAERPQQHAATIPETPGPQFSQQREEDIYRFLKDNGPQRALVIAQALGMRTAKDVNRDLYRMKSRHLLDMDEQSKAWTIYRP

For another series, the target named is T2, ZαβZBP1 N141D/Y145A (Homo sapiens, UniProt Q9H171 4-167, N141D;Y145A).
T2 sequence: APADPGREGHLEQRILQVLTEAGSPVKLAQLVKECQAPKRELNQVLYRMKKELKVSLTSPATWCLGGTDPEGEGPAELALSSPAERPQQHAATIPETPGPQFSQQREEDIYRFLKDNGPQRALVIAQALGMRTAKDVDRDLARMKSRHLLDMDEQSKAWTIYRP

For a further series, the target named is T3, ZαβZBP1 N46D/Y50A (Homo sapiens, UniProt Q9H171 4-167, N46D;Y50A).
T3 sequence: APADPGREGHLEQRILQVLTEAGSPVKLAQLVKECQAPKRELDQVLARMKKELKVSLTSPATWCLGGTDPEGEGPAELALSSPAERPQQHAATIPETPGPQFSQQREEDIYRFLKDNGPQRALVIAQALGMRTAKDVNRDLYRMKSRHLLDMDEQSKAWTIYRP

In another series the target is T4, ZαβZBP1 Y50A (Homo sapiens, UniProt Q9H171 4-167, Y50A).
T4 sequence: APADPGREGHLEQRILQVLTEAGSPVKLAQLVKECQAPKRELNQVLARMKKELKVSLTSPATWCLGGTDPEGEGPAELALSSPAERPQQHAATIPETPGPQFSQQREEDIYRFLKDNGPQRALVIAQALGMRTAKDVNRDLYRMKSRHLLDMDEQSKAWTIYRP

The target in series [1] is T5, ZαβZBP1 N46D/Y50A/N141D/Y145A (Homo sapiens, UniProt Q9H171 4-167, N46D;Y50A;N141D;Y145A).
T5 sequence: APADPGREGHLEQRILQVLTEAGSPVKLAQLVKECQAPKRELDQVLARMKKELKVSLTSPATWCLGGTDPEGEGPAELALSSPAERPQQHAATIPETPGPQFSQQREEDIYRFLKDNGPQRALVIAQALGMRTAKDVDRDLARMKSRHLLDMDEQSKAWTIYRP

The next series concerns the target T6, ZαβZBP1 N46D (Homo sapiens, UniProt Q9H171 4-167, N46D).
T6 sequence: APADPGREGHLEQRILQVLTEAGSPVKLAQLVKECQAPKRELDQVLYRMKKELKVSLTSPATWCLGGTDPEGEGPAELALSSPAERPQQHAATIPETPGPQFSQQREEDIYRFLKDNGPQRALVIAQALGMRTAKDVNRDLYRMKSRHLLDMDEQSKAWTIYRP

In the next series the target is T7, ZβZBP1 (Homo sapiens, UniProt Q9H171 4-10+87-167, internal_change).
T7 sequence: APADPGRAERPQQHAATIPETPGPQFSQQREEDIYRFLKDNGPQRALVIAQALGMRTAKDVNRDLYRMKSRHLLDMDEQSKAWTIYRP

For the next series, the target named is T8, ZαZBP1 (Homo sapiens, UniProt Q9H171 4-86).
T8 sequence: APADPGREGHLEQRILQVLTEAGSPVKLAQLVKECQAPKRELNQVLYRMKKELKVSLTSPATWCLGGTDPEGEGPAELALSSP

A further series deals with T9, ZαβADAR1 (Homo sapiens, UniProt P55265 133-368).
T9 sequence: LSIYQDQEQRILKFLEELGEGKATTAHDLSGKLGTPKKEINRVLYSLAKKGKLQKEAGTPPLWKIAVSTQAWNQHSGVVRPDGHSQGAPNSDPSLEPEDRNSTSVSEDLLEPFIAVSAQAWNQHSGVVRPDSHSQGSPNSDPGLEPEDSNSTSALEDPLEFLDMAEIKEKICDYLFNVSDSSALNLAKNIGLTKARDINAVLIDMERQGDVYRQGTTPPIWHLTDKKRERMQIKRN

B1: (dC-dG)20 (dsDNA)
DNA 1: CGCGCGCGCGCGCGCGCGCGCGCGCGCGCGCGCGCGCGCG
DNA 2: CGCGCGCGCGCGCGCGCGCGCGCGCGCGCGCGCGCGCGCG
In the case of B1, the binding result is “binds” with ZαβZBP1; “no binding” with ZαβZBP1 N141D/Y145A; “no binding” with ZαβZBP1 N46D/Y50A; “no binding” with ZαβZBP1 Y50A; “no binding” in [1]; “no binding” with ZαβZBP1 N46D. The binding result in the series with ZβZBP1, in the series with ZαZBP1 and with ZαβADAR1 was “binds” throughout.
